Data from publication PMC4990646, “DELLA proteins are common components of symbiotic rhizobial and mycorrhizal signalling pathways” (Nature Communications, 2016).

B1: HIS-MtDELLA2 (natural protein, M. truncatula, UniProt A0A396GMX6 1-533, looked up)
chain: MKREHKLEHEDMSSGSGKSGVCWEDDGGGMDELLAVVGYKVKSSDMAEVAQKLEQLEQAMMGNNFHDHDESTIAQHLSNDTVHYNPSDISNWLQTMLSNFDPQPNNPSVNSDDNDLNAIPGKAIYAADEFTSRKRVKRNESVTVTTESTTTRPIMVVETQEKGIRLVHSLMACAEAVEQNNLKMAEALVKQIGYLAVSQEGAMRKVATYFAEGLARRIYGVFPQHSVSDSLQIHFYETCPNLKFAHFTANQAILEAFQGKSSVHVIDFSINQGMQWPALMQALALRPGGPPAFRLTGIGPPASDNSDHLQQVGWRLAQFAQTIHVQFEYRGFVANSLADLDASMLELRSPETESVAVNSVFELHKLNARPGALEKVFSVIRQIRPEIVTVVEQEANHNGPAFLDRFTESLHYYSTLFDSLEGSSVEPQDKAMSEVYLGKQICNVVACEGTDRVERHETLNQWRNRFNSAGFSPVHLGSNAFKQASMLLALFAGGDGYKVEENDGCLMLGWHTRPLIATSAWKLAAANSVVVSH
notes: MtDELLA2 of Medicago truncatula; the trigger factor is inferred from the vector pCold-TF; also called HIS-tagged MtDELLA2; source: E. coli, purified (Ni-NTA Agarose); not shown: His tag, N-terminal, kept
B2: MBP-IPD3 (natural protein, M. truncatula, UniProt A7TUE1 1-513, looked up)
chain: MEGRGFSGLYKNSSEELFLKTVMESPIGMPVPTMEMLGFKTVSQSFRTDSEELFKRWLTNDQEGYNSSSMGLNSRLSKRISTEIANMSNQQHIGVASEGRNNDKSCLQNNFLANDVSSDFNFPIRDPVDRELQSSNLFLAKAWFITDQRMTRSRSSELRRRYTEMQNSQAPQGLDSMFMVPEHDTNTIKEELANFNGFDYLSMCELPSQKGTFMSPSNSSSSTFNTHQLVDVDKVSSCVSMLKGTLQRKKLECQVEKEAAEDGLNEIFCIREPLFQSAFNEEESWNQQKLVNVQGDFTDQVNDPGVMQTLEGTTNFVLDGFANQTNQIQGRTASGEPSQSESSAAAPVISSGLDACEGPSNSNQTLGDSSWKQVGESTQNKVRGVREQIMDNLKDDRKRKSLERYGSVTSAVSDGKMDNTKKRRVERSRKMAEAKERNLTPTIPSDMQAILKRCENLEKEVRSLKLNLSFMNRKDSEQTKQIEDLQKQNEDLADEKERLLEEIERILSETGKI
notes: IPD3 (CYCLOPS) of Medicago truncatula; also called MBP-IPD3 fusion protein; source: E. coli, purified (amylose resin), held on the resin; not shown: MBP, N-terminal, kept
B3: HIS-MtDELLA1 (natural protein, M. truncatula, UniProt A0A396IUP1 1-594, looked up)
chain: MKREHQESFGGGVISNNNKTNTNHLNSSKNINFGECSSMQNTNTKQNMWREEKETNGGGMDELLAALGYKVRSSDMADVAQKLEQLEMVMGSAQEEGINHLSSDTVHYDPTDLYSWVQTMLTELNPDSSQINDPLASLGSSSEILNNTFNDDSEYDLSAIPGMAAYPPQEENTAAKRMKTWSEPESEPAVVMSPPPAVENTRPVVLVDTQETGVRLVHTLMACAEAIQQKNLKLAEALVKHISLLASLQTGAMRKVASYFAQALARRIYGNPEETIDSSFSEILHMHFYESSPYLKFAHFTANQAILEAFAGAGRVHVIDFGLKQGMQWPALMQALALRPGGPPTFRLTGIGPPQADNTDALQQVGWKLAQLAQTIGVQFEFRGFVCNSIADLDPNMLEIRPGEAVAVNSVFELHTMLARPGSVEKVLNTVKKINPKIVTIVEQEANHNGPVFVDRFTEALHYYSSLFDSLEGSNSSSNNSNSNSTGLGSPSQDLLMSEIYLGKQICNVVAYEGVDRVERHETLTQWRSRMGSAGFEPVHLGSNAFKQASTLLALFAGGDGYRVEENNGCLMLGWHTRSLIATSAWKLPQNESK
notes: MtDELLA1 of Medicago truncatula; the trigger factor is inferred from the vector pCold-TF; also called HIS-tagged MtDELLA1; source: E. coli, purified (Ni-NTA Agarose); not shown: His tag, N-terminal, kept

How the values were obtained:
Test in all cases: pull-down; MBP fusion on amylose resin captures purified HIS-tagged MtDELLA; western blot with anti-MBP and anti-HIS
Conditions in all cases: both partners purified
MBP-NSP2 = target: T1, MBP-NSP2 (M. truncatula, UniProt Q5NE24 1-508)
T1 construct: NSP2 of Medicago truncatula; source: E. coli, purified (amylose resin), held on the resin; not shown: MBP, N-terminal, kept

HIS-MtDELLA2 = target: B1
HIS-MtDELLA1 = target: B3

T1 sequence (Q5NE24 whole entry, the tested form may be a part): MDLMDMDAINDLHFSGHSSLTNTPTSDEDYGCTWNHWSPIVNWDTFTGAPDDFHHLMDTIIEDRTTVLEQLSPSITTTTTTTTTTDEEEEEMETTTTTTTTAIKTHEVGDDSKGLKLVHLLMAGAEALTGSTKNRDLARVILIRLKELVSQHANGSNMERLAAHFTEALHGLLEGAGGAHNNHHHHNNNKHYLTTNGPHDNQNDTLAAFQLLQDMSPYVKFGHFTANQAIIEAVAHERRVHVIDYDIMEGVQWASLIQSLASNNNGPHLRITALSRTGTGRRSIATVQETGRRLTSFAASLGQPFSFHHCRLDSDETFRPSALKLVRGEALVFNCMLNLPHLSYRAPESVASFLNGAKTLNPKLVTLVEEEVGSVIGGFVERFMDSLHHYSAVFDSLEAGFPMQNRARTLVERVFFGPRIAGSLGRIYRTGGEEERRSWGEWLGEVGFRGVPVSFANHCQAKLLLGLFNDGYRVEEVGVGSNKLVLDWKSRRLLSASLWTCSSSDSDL

Row | Binder | binding result (MBP-NSP2) | binding result (HIS-MtDELLA2) | binding result (HIS-MtDELLA1)
1 | B1 | binds |  | 
2 | B2 |  | binds | binds
3 | B3 | binds |  | 
